Assay: yeast display, Sf9 membrane polyspecificity reagent, FACS + sequencing; frameworks hold sequencing errors
Summary of the method: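 Nanobodies came from a synthetic yeast display library in Saccharomyces cerevisiae BJ5465, induced with galactose for 36–48 hours and stained for 1 hour at 4 °C with 10% biotinylated, detergent-solubilized Sf9 membrane reagent. Cells were enriched on streptavidin microbeads and then FACS-sorted, with low and high (top ~1%) gates set on anti-HA fluorescence for expression and streptavidin fluorescence for reagent binding. Each polyreactivity label reflects the gate a clone came from. Genes were amplified by colony PCR, sequenced by MiSeq 2 × 250 and filtered by CDR length.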
In the case of “QVQLVESWGGLVQAGGSLRLSCAASGRTFGKYAMGWYRQAPGKERELVASITFSSGSTYYADSVKGRFTISRDNAKNTVYLQMNSLKPEDTAVYYCAKRGWGIYDYWGQGTQVTVSS”, the “polyreactivity (PSR sort gate)” value is reported as “low polyreactivity”.
For “QVQLVESWGGLVQAGGSLRLSCAASGRTLGYNAMGWYRQAPGKERELVATISYNGGRTYYADSVKGRFTISRDNAKNTVYLQMNSLKPEDTAVYYCNTRYRWIRRSLFDYWGQGTQVTVSS”, the “polyreactivity (PSR sort gate)” value was “high polyreactivity”.
For “QVQLVESWGGLVQAGGSLRLSCAASGSTFDRYAMGWYRQAPGKERELVAAISGSAGRTYYADSVKGRFTISRENAKNTVYLQMNTLKPEDTAVYFCAAVQIVSGNYDYYWGQGTQVTVSS”, the “polyreactivity (PSR sort gate)” value was “low polyreactivity”.
For “QVQLVESWGGLVQAGGSLRLSCAASGSTFDYNAMGWYRQAPGKERELVAAITSTGGNTYYADSVKGRFTISRDNAKNTVYLQMISMKPEDTAVYYCNKDVARYPYGKFDYWGQGTQVTVSS”, the “polyreactivity (PSR sort gate)” value was “low polyreactivity”.
For “QVQLVESWGGLVQAGGSLRLSCAASGSTFGKYFMGWYRQAHGKERELVAAISLSGGSTYYADSVKGRFTISRDKAKNTVYLQMNSLKPEDTAVYYCATVGYGYDYWGQGNQVTVSS”, the “polyreactivity (PSR sort gate)” value was “high polyreactivity”.
In the case of “QVQLVESWGGLVQAGGSLRLSCAASGSTFTTNAMGWYRQAPGKERELVATMSGGGSTYYADSVKGSFTISRDNAKHTVYLQTNSLKPEDTAVYYCAKPTYRFYWGDFDYWGQGTQVTLSS”, the “polyreactivity (PSR sort gate)” value is reported as “low polyreactivity”.
For “QVQLVESWGGLVQAGGSLRLSCAASGYTFSAYAMGWYRQAPGKERELVAAISWSGASTSYADSVKGRFTISRDNAKNTVYLQMNSLKPEDTAVYYCAARRLHYQFKYYSWGQGTQVTVSS”, the “polyreactivity (PSR sort gate)” value was “high polyreactivity”.
For “QVQLVESWGGLVQAGGSLRLSCAASVSTFYNYAMGWYRQAHGKERELVAAISKSGGSTYYADSVKGRFTISRDNAKNTVYLQMNSLNPEDTAVYYCAARGVYRTRSGMGYWGQGTQVTVSS”, the “polyreactivity (PSR sort gate)” value was “high polyreactivity”.
For “QVQLVESWGGLVQAGGSLRLSCAAYGIIFKYYAMGWYRQAPGKERELVAVITSNGARTYYADSVKGRFTISRDNAKNTVYLQMNSLKPEDTAVYYCNAYRLSVSVGYDYCGQGTQVTVSS”, the “polyreactivity (PSR sort gate)” value was “high polyreactivity”.
With “QVQLVESWGGLVQAGGSLRLSCSASGRTLRGYAMGWYRQAPGKERELVAAISKGGGSTFYADSVKGRFTISRDNAKNTVYLLMISLKPEDTAVYYCAARARYTRRGRHYDYWGQGTQVTVSS” the “polyreactivity (PSR sort gate)” value was “high polyreactivity”.
For “QVQLVESWGGLVQAGGSLRLSSAASGFTFVTYGMGWYRQAPGKERELVARISSSSTNYADSVKGRFTISRDNAKNTVYLQMKSLKPEDTAVYYCAAVHYRWWYRSAYDYWGQGTQVTVSS”, the “polyreactivity (PSR sort gate)” value was “low polyreactivity”.
For “QVQLVESWGGLVQAGGSLRLSSAASGSIFYHYAMGWYRQAPGKERELVAAISWRGASTYYADSVKGRFTISRDNAKNTVYLQMNSLKPEDTAVYYCARLSSSHPLYRDDYWGQGTQVTLSS”, the “polyreactivity (PSR sort gate)” value was “high polyreactivity”.
In the case of “QVQLVESWGGLVQAGGSRRLSCDASGRTFVTNAMGWYRQARGKERELVAAISGTGGSTYYADSVKGRFTISRDNAKNTVFLHMNRLKPEDTAVYSWAADTYIYGLEYDYWGQGTQVTVSS”, the “polyreactivity (PSR sort gate)” value is reported as “low polyreactivity”.
With “QVQLVESWVGLVQAGGSLSLSCDASGFTILGYAMGWYRQAPGKERELVASITYGGDSTYYADSVKGRFTISRDNAKNTVYLQINCLKPEDTAVYYCNARPSYWWGGRLYGYWGQGSQVTVSS” the “polyreactivity (PSR sort gate)” value was “high polyreactivity”.
For “QVQLVETAGGLVHAGGSLRLSCADSGRIFERNAMGWNRQSPGKERELVARITSGGGTYYADSVKGRFTISRDNAKNTVYLQMNSLKPEDTAVYYCAVQYLYRKYRRYDYWGQGTQVTVSS”, the “polyreactivity (PSR sort gate)” value was “high polyreactivity”.
With “QVQLVETEVGLDQAGGSLPLSCAASGYTFWAYAMGWYRQSPGKERELVAGISSRGSRTYYADSVKGRFTISRDNAKNTVYLQMNSLKPEDTAVYYCNALRTPPGYYPPFDYWGQGTQVTVSS” the “polyreactivity (PSR sort gate)” value was “high polyreactivity”.
For “QVQLVETGGGIFQAGGSIRLSCAASGRTFSTYAKGWYRQAPGKERELVAGISRGGGSTYYADSVKGRFTISRDNAKNTVYLLMNSLKPEDTAVYYCAAKRPQYYVQYGYWGQGSQVTVSS”, the “polyreactivity (PSR sort gate)” value was “high polyreactivity”.
For “QVQLVETGGGIVQAGGSLRLRCAAAGRHCYHNVMGWYRQAPGKERELVAGIRSRGGSTSYADSVKGRFTISRDNSKNTVYLQMNSLKPEDTAVYYCATDTTLWYVLYDYWGQGTQVTVSS”, the “polyreactivity (PSR sort gate)” value was “low polyreactivity”.
In the case of “QVQLVETGGGLFQAGVSLRLSCAASGSTFDGYVMGWYRQAPGKERELVAAISGSGGSTYYADSVKGRFTISRDHAQNTDYLQMISLKPEDTAVYYCAADSWWYDDYSEGDYWGQGTQVTVSS”, the “polyreactivity (PSR sort gate)” value is reported as “low polyreactivity”.
For “QVQLVETGGGLVHAGGSLRLSCAASGFIFTEYAMGWYRQAPGKEMELVAAISRSDDATHYADSVKGRFTISRDNAKNTVSLQMNSLKTEDTAVYNCTVAPEGYSLVDTSPYYYWGQGTQVTVSS”, the “polyreactivity (PSR sort gate)” value was “low polyreactivity”.
For “QVQLVETGGGLVHAGGSLRLSCAASGSIFGLYAMGWYRQAPGKERELVAAITVSGGSTYYADSVKGRFTISRDNAKNTVYLQLNSLKPEDTAVYYCAARAGWPLYQYYYWGQGTQVTVSS”, the “polyreactivity (PSR sort gate)” value was “high polyreactivity”.
With “QVQLVETGGGLVKAGGSLRLSCAASGRIFLVNDMGWYRQAPGKERELVARINGGITNYADSVKGRFTISRDNAKNTVYFQMISLKPEDTAVYYCAARSRKYYSYYYWGQGTQLTVSS” the “polyreactivity (PSR sort gate)” value was “high polyreactivity”.
In the case of “QVQLVETGGGLVLAGGSLRLSCAASGSTFRLYAMGWYRQAPGTARELVAAITSGGSTYYADAVKGRFTISRDNAKNTVYLQMNSLKPEDTAVYYCARLAGDSTYWWWLYLITQRDDYWGQGTQVTVSS”, the “polyreactivity (PSR sort gate)” value is reported as “low polyreactivity”.
With “QVQLVETGGGLVQAGGILRLSCAASGLIFTGNVMGWYRQAPGKESELVAAISRSGGRTYYADSVKGRFTISRDNAKNTVYLQMNSLKPEDTAVYYCNKVSPERVYYGSYFRYYYWGQGTQVTVSS” the “polyreactivity (PSR sort gate)” value was “high polyreactivity”.
In the case of “QVQLVETGGGLVQAGGILRLSCAASGRIFVVYAMGWYRQAPGKERELVASNSRGGRTYYADSVKGRFTISRDNEKNTVYLQMNILKTEDTAVYYCAVVVFLKNRDLFDYWGQGTQVTVSS”, the “polyreactivity (PSR sort gate)” value is reported as “low polyreactivity”.
With “QVQLVETGGGLVQAGGSLHLSCAASGIIIYANDMGWYRQAPGKERELVAGISRNGGRTYYADSVKGRFTISRDNAKNTVYLQMNSLKPEDTAVYYCAARGSYTSIFDYWGQGTQVTVSS” the “polyreactivity (PSR sort gate)” value was “high polyreactivity”.
In the case of “QVQLVETGGGLVQAGGSLLLSCAASGFTLLSYAMGWYRQAPGKERELVAAISESGVSTSYADSVKGRFTISRDNAKNTVYLQMKSLKPEDTAFYYCNKSDFWVVIYDSWGQGTQVTVSS”, the “polyreactivity (PSR sort gate)” value is reported as “low polyreactivity”.
In the case of “QVQLVETGGGLVQAGGSLRISCAASGFTISFYAMAWYRHAPGKERELVAAISSGGRTSYADSVKGRFTISRDNAKNTVYLQMNSLTPEATAVYYCAATNRWYYRAAAAVYAFGYWGHGTQVTVSS”, the “polyreactivity (PSR sort gate)” value is reported as “high polyreactivity”.
In the case of “QVQLVETGGGLVQAGGSLRISCAASGIIYVDNVMGSYRQAPGKERELVAAIDYSGGSTYYADSVKGRFTISRDNAKNNVYFQMNSLKPEDTAVYYCHARTYYGYGMDYWGQGTQVTVSS”, the “polyreactivity (PSR sort gate)” value is reported as “low polyreactivity”.
With “QVQLVETGGGLVQAGGSLRLSCAASGATFNANGMGWYRQAPGKERELVAAISQRAGRTYYADSVKGRFTISRDNAKNTVYLQMNSLKPEDTAVYYCAARYLGGYYFRYYYWGQGTQVTVSS” the “polyreactivity (PSR sort gate)” value was “high polyreactivity”.
For “QVQLVETGGGLVQAGGSLRLSCAASGFIFRGNAMGWYRQAPGKERELVAAISKRGGSTNYADSVKGRFTISRDNAKNTVYLQMNSLKPEDTAVYYCNAEGIYRQPRGYVYRYDYWGQGTQVTVSS”, the “polyreactivity (PSR sort gate)” value was “high polyreactivity”.
In the case of “QVQLVETGGGLVQAGGSLRLSCAASGFIFYPYDMGWYRQAPGKERELVAAITQSGGSTYYADSVKGRFTISRDNAKNTVYLQMNSLKQVDTAVYYCAADYAVWHRGQVVEIYDYWGQGTQVTVSS”, the “polyreactivity (PSR sort gate)” value is reported as “low polyreactivity”.
For “QVQLVETGGGLVQAGGSLRLSCAASGFILDYNAKGWYRQAPGKERELVAAITSGGSTNYSDSVKGRFTISRDNAKNTVYLQMNSLKPEDTAVYYCNVRSVSPVHDDGSWGQGTQVTVSS”, the “polyreactivity (PSR sort gate)” value was “low polyreactivity”.
For “QVQLVETGGGLVQAGGSLRLSCAASGFTFYYYAMGWYRQAPGKERELVAAINRSGGSTYYADSLKGRFTISRDNAKNTVYLQMNSLKPEDTAVYYCAAPYVGGSSHGYWGQGTQVTVSS”, the “polyreactivity (PSR sort gate)” value was “high polyreactivity”.
With “QVQLVETGGGLVQAGGSLRLSCAASGFTIRRYTMGWYRQAPGKERELVAAITRGVRTYYADSVKGRFTISRDNAKNTVYLQMNSLKPEDTAVYYCNTAQQSERDYWGQGTQVTVSS” the “polyreactivity (PSR sort gate)” value was “high polyreactivity”.
For “QVQLVETGGGLVQAGGSLRLSCAASGGIFLVNDMGWYRPAPGKERELVAAISGSGGSTYYADSVKGRVTISRDNAKNTVYLQMNSLKPEDTAVYYCAAVGTHKAGGAYNYWGQGTQVTVSS”, the “polyreactivity (PSR sort gate)” value was “low polyreactivity”.
In the case of “QVQLVETGGGLVQAGGSLRLSCAASGGIIRVYVMGWYIQAPGKERELVAAISRRGGSTYYADSVKGRFTISRDNAKNTVYLKMNSLKPEDTAVYYCAAYSTGTEFDYWGQGTQVSVSS”, the “polyreactivity (PSR sort gate)” value is reported as “high polyreactivity”.
For “QVQLVETGGGLVQAGGSLRLSCAASGIFVSYAMGWYRQAPGKERELVAAIRYSGDSTYYADSVKGRFTISRDNAKNTVYLQMNSLKPEDTAVYYCAATKGWSRYEYWGQGTQVTVSS”, the “polyreactivity (PSR sort gate)” value was “low polyreactivity”.
For “QVQLVETGGGLVQAGGSLRLSCAASGIIFSKYAMGRYRQAPGKERELVAAITRSGGSTYYADSVKGRFTISRDNAKNTVYLQMNSLKPEDTAVYYCAKRSGTPTNRQRYGYWGQGTQVTVSS”, the “polyreactivity (PSR sort gate)” value was “high polyreactivity”.
With “QVQLVETGGGLVQAGGSLRLSCAASGITIRPYTMGWYRQAPGKERELVARISRRGGSTYYADSVKGRFTISRDNAKNTVYLQMNSLKPEDTAVYYCATRSRAHISPYDYWGQGTQVTVSS” the “polyreactivity (PSR sort gate)” value was “high polyreactivity”.
With “QVQLVETGGGLVQAGGSLRLSCAASGLILGGYAMGWYRQAHGKERELVAAITRGGGSTFYADSVKGRFTISRDNAKNTVYLQMNSLKPEDTAVYYCAKRYPYRPPGPRYRGLSGYVYWGQGTQVTVSS” the “polyreactivity (PSR sort gate)” value was “high polyreactivity”.
